IntAct's records for PubMed 30026228

B1: Zinc fingers and homeoboxes protein 2 (Homo sapiens), Q9Y6X8 (parent)
chain: MASKRKSTTPCMVRTSQVVEQDVPEEVDRAKEKGIGTPQPDVAKDSWAAELENSSKENEVIEVKSMGESQSKKLQGGYECKYCPYSTQNLNEFTEHVDMQHPNVILNPLYVCAECNFTTKKYDSLSDHNSKFHPGEANFKLKLIKRNNQTVLEQSIETTNHVVSITTSGPGTGDSDSGISVSKTPIMKPGKPKADAKKVPKKPEEITPENHVEGTARLVTDTAEILSRLGGVELLQDTLGHVMPSVQLPPNINLVPKVPVPLNTTKYNSALDTNATMINSFNKFPYPTQAELSWLTAASKHPEEHIRIWFATQRLKHGISWSPEEVEEARKKMFNGTIQSVPPTITVLPAQLAPTKVTQPILQTALPCQILGQTSLVLTQVTSGSTTVSCSPITLAVAGVTNHGQKRPLVTPQAAPEPKRPHIAQVPEPPPKVANPPLTPASDRKKTKEQIAHLKASFLQSQFPDDAEVYRLIEVTGLARSEIKKWFSDHRYRCQRGIVHITSESLAKDQLAIAASRHGRTYHAYPDFAPQKFKEKTQGQVKILEDSFLKSSFPTQAELDRLRVETKLSRREIDSWFSERRKLRDSMEQAVLDSMGSGKKGQDVGAPNGALSRLDQLSGAQLTSSLPSPSPAIAKSQEQVHLLRSTFARTQWPTPQEYDQLAAKTGLVRTEIVRWFKENRCLLKTGTVKWMEQYQHQPMADDHGYDAVARKATKPMAESPKNGGDVVPQYYKDPKKLCEEDLEKLVTRVKVGSEPAKDCLPAKPSEATSDRSEGSSRDGQGSDENEESSVVDYVEVTVGEEDAISDRSDSWSQAAAEGVSELAESDSDCVPAEAGQA

Variants of: B1
Details: with vhl_human VHL

| Variant | effect of a mutation on the interaction |
| --- | --- |
| P440A | decreasing interaction strength |
| P464A | decreasing interaction strength |
| P427A;P440A;P464A | disrupting interaction strength |
| P427A | decreasing interaction strength |
